Results as given in publication PMC9452701, “Highly efficient production of rebaudioside D enabled by structure-guided engineering of bacterial glycosyltransferase YojK” (Frontiers in Bioengineering and Biotechnology, 2022).
Positions count from the first letter of the chain named. Names and notes keep the numbering of the source.

T1: YojK (Bacillus subtilis, UniProt O31853)
T1 construct: codon-optimized synthetic gene in pET-21b(+), E. coli BL21(DE3), Ni-NTA and Superdex 200; M1-M405 described; two monomers per asymmetric unit
T1 sequence (O31853 1-405): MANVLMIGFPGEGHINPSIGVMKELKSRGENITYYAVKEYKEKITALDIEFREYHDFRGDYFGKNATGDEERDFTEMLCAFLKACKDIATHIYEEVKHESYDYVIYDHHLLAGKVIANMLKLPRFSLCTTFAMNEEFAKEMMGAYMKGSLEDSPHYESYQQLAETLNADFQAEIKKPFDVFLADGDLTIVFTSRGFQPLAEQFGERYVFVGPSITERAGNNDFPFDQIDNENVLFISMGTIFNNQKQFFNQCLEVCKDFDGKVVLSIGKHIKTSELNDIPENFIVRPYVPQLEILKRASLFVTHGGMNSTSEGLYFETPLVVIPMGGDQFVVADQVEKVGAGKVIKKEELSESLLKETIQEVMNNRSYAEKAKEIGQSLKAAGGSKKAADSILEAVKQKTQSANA

B1: YojK (Bacillus subtilis subsp. subtilis str. 168) (protein)
chain: T1 sequence (O31853 1-405)
B2: YojK (Bacillus subtilis subsp. subtilis str. 168; I241T) (protein)
chain: T1 sequence (O31853 1-405) with I241T
B3: YojK (Bacillus subtilis subsp. subtilis str. 168; G326F) (protein)
chain: T1 sequence (O31853 1-405) with G326F
B4: YojK (Bacillus subtilis subsp. subtilis str. 168; G327N) (protein)
chain: T1 sequence (O31853 1-405) with G327N
B5: YojK (Bacillus subtilis subsp. subtilis str. 168; G326F/I241T) (protein)
chain: T1 sequence (O31853 1-405) with I241T, G326F
B6: YojK (Bacillus subtilis subsp. subtilis str. 168; G327N/I241T) (protein)
chain: T1 sequence (O31853 1-405) with I241T, G327N

These molecules were tested against T1, YojK (assay: X-ray crystal structure, […] Å). Conditions: co-crystallised with 5 mM UDP, pH 8.0, 18°C; sugar donor site.
Format: binding
O=c1ccn([C@@H]2O[C@H](COP(=O)(O)OP(=O)(O)O)[C@@H](O)[C@H]2O)c(=O)[nH]1 [UDP] was tested, and the “X-ray crystal structure, 1.90 Å” value was “we solved the crystal structure of YojK in complex with uridine diphosphate (UDP)”.

Each molecule was assayed on C=C1C[C@@]23CC[C@H]4[C@@](C)(CCC[C@@]4(C)C(=O)O[C@@H]4O[C@H](CO)[C@@H](O)[C@H](O)[C@H]4O)[C@@H]2CC[C@]1(O[C@@H]1O[C@H](CO)[C@@H](O)[C@H](O[C@@H]2O[C@H](CO)[C@@H](O)[C@H](O)[C@H]2O)[C@H]1O[C@@H]1O[C@H](CO)[C@@H](O)[C@H](O)[C@H]1O)C3 (assay: purified protein). Conditions: 5 mM UDPG, 10 mM MnCl2, 50 mM Tris-HCl pH 8.0, 35°C, 20 min, Reb A 0.05-0.7 mM.
For B1, the Km was 210.52 ± 11.70 µM, the kcat was 0.018 s⁻¹ and the kcat/Km was 85.5 M⁻¹ s⁻¹. In the case of B2, the Km is reported as 197.74 ± 9.25 µM, the kcat is reported as 0.0223 s⁻¹ and the kcat/Km is reported as 113 M⁻¹ s⁻¹. B3 showed a Km of 290.16 ± 8.34 µM, a kcat of 0.154 s⁻¹ and a kcat/Km of 528 M⁻¹ s⁻¹. With B4 the Km was 176.23 ± 10.62 µM, the kcat was 0.0837 s⁻¹ and the kcat/Km was 475 M⁻¹ s⁻¹. Molecule B5 has a Km of 347.63 ± 24.23 µM, a kcat of 0.258 s⁻¹ and a kcat/Km of 741 M⁻¹ s⁻¹. With B6 the Km was 193.07 ± 7.30 µM, the kcat was 0.179 s⁻¹ and the kcat/Km was 929 M⁻¹ s⁻¹.
